Test results from patent publication US20210061908A1 (IOMX THERAPEUTICS, published 2021).
Where two headings read alike, the source gives them in different places.

T1: extracellular domain (ECD) of human IGSF11 (VSIG3), HIS-tagged (human, UniProt Q5DX21 23-241, biotinylated in the ELISA of Example 4 (site not stated))
T1 construct: also called HIS-IGSF11; IGSF11-HIS; not shown: HIS6 tag
T1 sequence: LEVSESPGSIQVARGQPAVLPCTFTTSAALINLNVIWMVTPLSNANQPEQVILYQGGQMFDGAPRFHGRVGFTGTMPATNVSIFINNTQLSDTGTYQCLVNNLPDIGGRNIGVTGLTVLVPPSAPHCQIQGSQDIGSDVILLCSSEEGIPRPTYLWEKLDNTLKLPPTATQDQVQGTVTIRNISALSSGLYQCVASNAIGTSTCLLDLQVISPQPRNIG


Columns and labels:
[1] = target: T1, extracellular domain (ECD) of human …; experiment: blocking ELISA (Example 5): IgG titrated and pre-incubated with 200 nM his-tagged IGSF11 ECD, complexes added to immobilised VSIR-Fc, bound IGSF11 detected with anti-hexahistidine-HRP; blocked ligand: VSIR-Fc
[2] = target: T1, extracellular domain (ECD) of human …; experiment: ELISA: IGSF11-HIS coated, IgG1 antibody titrated, anti-human antibody-HRP and TMB; X-axis nM and Y-axis absorbance per legend paragraph 30
[3] = target: T1, extracellular domain (ECD) of human …; experiment: blocking ELISA (Example 5): IgG titrated and pre-incubated with 200 nM his-tagged IGSF11 ECD, complexes added to immobilised VSIR-Fc, bound IGSF11 detected with anti-hexahistidine-HRP; blocked ligand: VSIR-Fc; remark: listed apart in the source

Row | IC50 (read off the curve) [1] [nM] | EC50 (read off the curve) [2] [nM] | IC50 (read off the curve) [3] [nM] | Binder
1 | ~2 | ~0.009 | – | B-003 (chain-swapped, human IgG1 format) (antibody, V domains shown, VH of A-012 with VL of A-005; IgG1 format; also called B3; Chains-B-003) VH: EVQLLESGGGLIQPGGSLRLSCAVSGFTVSSNYMSWVRQAPGKGLEWVSVIYSGGSTYYADSVKGRFTISRDNSKNTLYLQMNSLRAEDTAVYYCARGNPYYYGDLQVNFDYWGQGTLVTVSS VL: QAVVTQEPSLTVSPGETVTLTCASSTGAVTSGYYPNWFQQRPGQAPRALIYSTSNKDSWTPARFSGSLLGGKAALTLSGVQPEDEAEYYCLLYYGGAWVFGGGTKLTVL
2 | ~2 | ~0.01 | – | B-005 (chain-swapped, human IgG1 format) (antibody, V domains shown, VH of A-012 with VL of A-002; IgG1 format; also called B5; Chains-B-005) VH: EVQLLESGGGLIQPGGSLRLSCAVSGFTVSSNYMSWVRQAPGKGLEWVSVIYSGGSTYYADSVKGRFTISRDNSKNTLYLQMNSLRAEDTAVYYCARGNPYYYGDLQVNFDYWGQGTLVTVSS VL: QAVVTQEPSLTVSPGGTVTPTCGSSTGAVTSGNLPNWFQQKPGQAPRALIYSTSNKHSWTPARISGSLLGGKAALTLSGVQPEDEAEYYCLLYYGGAWVFGGGTKLTVL
3 | – | – | ~4 | B-008 (chain-swapped, human IgG1 format) (antibody, V domains shown, VH of A-006 with VL of A-002; IgG1 format; also called B8; Chains-B-008) VH: EVQLVESGGGLIQPGGSLRLSCAASGFTVSSNYMSWVRQAPGKGLEWVSVIYSGGSTYYADSVKGRFTISRDNSKNTLYLQMNSLRAEDTAVYYCARGNPYYYGDLQVNFDYWGQGTLVTVSS VL: QAVVTQEPSLTVSPGGTVTPTCGSSTGAVTSGNLPNWFQQKPGQAPRALIYSTSNKHSWTPARISGSLLGGKAALTLSGVQPEDEAEYYCLLYYGGAWVFGGGTKLTVL
4 | – | – | ~3 | B-007 (chain-swapped, human IgG1 format) (antibody, V domains shown, VH of A-006 with VL of A-013; IgG1 format; also called B7; Chains-B-007) VH: EVQLVESGGGLIQPGGSLRLSCAASGFTVSSNYMSWVRQAPGKGLEWVSVIYSGGSTYYADSVKGRFTISRDNSKNTLYLQMNSLRAEDTAVYYCARGNPYYYGDLQVNFDYWGQGTLVTVSS VL: QAVVTQEPSLTVSPGGTVTLTCASSTGAVTSAYYPNWFQQKPGQAPRALIYSTSNKHSWTPARFSGSLLGGKAALTLSGVQPEDEADYYCLLYYGGAWVFGGGTKLTVL
